Measurements from paper PMC3107930.

Target: motavizumab Fab
Experiment: SPR

RSV F peptide (motavizumab epitope peptide)
Kd: 0.241 µM
